The numbers were not newly measured in patent publication US5380646A, “Thrombus detection using radiolabelled disintegrins” (Temple University of the Commonwealth System of Higher …, priority 1992, dated 1995), which cites them from elsewhere.

The test system of the data set is thrombi. Particulars: literature, in words.

B1: tissue plasminogen activator: plasminogen activator (protein, UniProt P00750 36-562, looked up)
Tissue-type plasminogen …: SYQVICRDEKTQMIYQQHQSWLRPVLRSNRVEYCWCNSGRAQCHSVPVKSCSEPRCFNGGTCQQALYFSDFVCQCPEGFAGKCCEIDTRATCYEDQGISYRGTWSTAESGAECTNWNSSALAQKPYSGRRPDAIRLGLGNHNYCRNPDRDSKPWCYVFKAGKYSSEFCSTPACSEGNSDCYFGNGSAYRGTHSLTESGASCLPWNSMILIGKVYTAQNPSAQALGLGKHNYCRNPDGDAKPWCHVLKNRRLTWEYCDVPSCSTCGLRQYSQPQFRIKGGLFADIASHPWQAAIFAKHRRSPGERFLCGGILISSCWILSAAHCFQERFPPHHLTVILGRTYRVVPGEEEQKFEVEKYIVHKEFDDDTYDNDIALLQLKSDSSRCAQESSVVRTVCLPPADLQLPDWTECELSGYGKHEALSPFYSERLKEAHVRLYPSSRCTSQHLLNRTVTDNMLCAGDTRSGGPQANLHDACQGDSGGPLVCLNDGRMTLVGIISWGLGCGQKDVPGVYTKVTNYLDWIRDNMRP
Turning to B1, the “ability to image or detect thrombi” value was “only with marginal success”.
